From US20210198368A1 (Novartis, published 2021)

T1: human CLL1 expressed on cancer cell lines HL60 and U937 (human, UniProt Q5QGZ9 1-265)
T1 sequence (looked up): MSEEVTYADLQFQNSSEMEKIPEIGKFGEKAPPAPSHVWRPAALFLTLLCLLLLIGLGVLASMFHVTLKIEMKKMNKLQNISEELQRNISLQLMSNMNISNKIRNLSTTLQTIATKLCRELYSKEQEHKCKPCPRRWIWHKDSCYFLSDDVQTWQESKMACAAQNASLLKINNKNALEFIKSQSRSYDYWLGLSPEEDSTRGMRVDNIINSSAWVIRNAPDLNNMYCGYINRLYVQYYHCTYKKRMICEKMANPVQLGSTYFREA

B1: CD3 × CLL1_11 (bispecific antibody)
chain 1: QVQLVQSGGGVVQPGRSLRLSCKASGYTFTRYTMHWVRQAPGKGLEWIGYINPSRGYTNYNQKVKDRFTISRDNSKNTAFLQMDSLRPEDTGVYFCARYYDDHYSLDYWGQGTPVTVSSGGGGSGGGKSKKGGSGGGGSDIQMTQSPSSLSASVGDRVTITCSASSSVSYMNWYQQTPGKAPKRWIYDTSKLASGVPSRFSGSGSGTDYTFTISSLQPEDIATYYCQQWSSNPFTFGQGTKLQITGGGGSDKTHTCPPCPAPELLGGPSVFLFPPKPKDTLMISRTPEVTCVVVAVSHEDPEVKFNWYVDGVEVHNAKTKPREEQYNSTYRVVSVLTVLHQDWLNGKEYKCKVSNKALAAPIEKTISKAKGQPREPQVCTLPPSRDELTKNQVSLSCAVKGFYPSDIAVEWESNGQPENNYKTTPPVLDSDGSFFLVSKLTVDKSRWQQGNVFSCSVMHEALHNHYTQKSLSLSPGK
chain 2: EVQLVQSGGGVVRSGRSLRLSCAASGFTFNSYGLHWVRQAPGKGLEWVALIEYDGSNKYYGDSVKGRFTISRDKSKSTLYLQMDNLRAEDTAVYYCAREGNEDLAFDIWGQGTLVTVSSGGGGSGGGGSGGGGSGGGGSEIVLTQSPSSLSASVGDRVTITCQASQFIKKNLNWYQHKPGKAPKLLIYDASSLQTGVPSRFSGNRSGTTFSFTISSLQPEDVATYYCQQHDNLPLTFGGGTKVEIKGGGGSGSDKTHTCPPCPAPELLGGPSVFLFPPKPKDTLMISRTPEVTCVVVAVSHEDPEVKFNWYVDGVEVHNAKTKPREEQYNSTYRVVSVLTVLHQDWLNGKEYKCKVSNKALAAPIEKTISKAKGQPREPQVYTLPPCRDELTKNQVSLWCLVKGFYPSDIAVEWESNGQPENNYKTTPPVLDSDGSFFLYSKLTVDKSRWQQGNVFSCSVMHEALHNHYTQKSLSLSPGK
B2: CD3 × CLL1_09 (bispecific antibody)
chain 1: B1 chain 1
chain 2: QVQLVQSGAEVKEPGASVKVSCKAPANTFSDHVMHWVRQAPGQRFEWMGYIHAANGGTHYSQKFQDRVTITRDTSANTVYMDLSSLRSEDTAVYYCARGGYNSDAFDIWGQGTMVTVSSGGGGSGGGGSGGGGSGGGGSDIVMTQSPSSVSASVGDRVTITCRASQDISSWLAWYQQKPGKAPKLLIYAASSLQSGVPSRFNGSGSGTDFTLTISSLQPEDFATYYCQQSYSTPLTFGGGTKVEIKGGGGSGSDKTHTCPPCPAPELLGGPSVFLFPPKPKDTLMISRTPEVTCVVVAVSHEDPEVKFNWYVDGVEVHNAKTKPREEQYNSTYRVVSVLTVLHQDWLNGKEYKCKVSNKALAAPIEKTISKAKGQPREPQVYTLPPCRDELTKNQVSLWCLVKGFYPSDIAVEWESNGQPENNYKTTPPVLDSDGSFFLYSKLTVDKSRWQQGNVFSCSVMHEALHNHYTQKSLSLSPGK
B3: CD3 × CLL1_06 (bispecific antibody)
chain 1: B1 chain 1
chain 2: EVQLVESGGGLVKPGGSLRLSCAASGFTFSSYSMNWVRQAPGKGLEWVSSISSSSSYIYYADSVKGRFTISRDNAKNSLYLQMNSLRAEDTAVYYCARDPSSSGSYYMEDSYYYGMDVWGQGTTVTVSSGGGGSGGGGSGGGGSNFMLTQPHSVSESPGKTVTISCTGSSGSIASNYVQWYQQRPGSAPTTVIYEDNQRPSGVPDRFSGSIDSSSNSASLTISGLKTEDEADYYCQSYDSSNQVVFGGGTKLTVLGGGGSGSDKTHTCPPCPAPELLGGPSVFLFPPKPKDTLMISRTPEVTCVVVAVSHEDPEVKFNWYVDGVEVHNAKTKPREEQYNSTYRVVSVLTVLHQDWLNGKEYKCKVSNKALAAPIEKTISKAKGQPREPQVYTLPPCRDELTKNQVSLWCLVKGFYPSDIAVEWESNGQPENNYKTTPPVLDSDGSFFLYSKLTVDKSRWQQGNVFSCSVMHEALHNHYTQKSLSLSPGK
B4: CD3 × CLL1_13 (bispecific antibody)
chain 1: B1 chain 1
chain 2: QVQLVQSGAEVKKSGASVKVSCKASGYPFTGYYIQWVRQAPGQGLEWMGWIDPNSGNTGYAQKFQGRVTMTRNTSISTAYMELSSLRSEDTAVYYCASDSYGYYYGMDVWGQGTLVTVSSGGGGSGGGGSGGGGSGGGGSDIQMTQSPSSLSASVGDRVTFTCRASQGISSALAWYQQKPGKPPKLLIYDASSLESGVPSRFSGSGSGTDFTLTISSLQPEDFATYYCQQFNNYPLTFGGGTKVEIKGGGGSGSDKTHTCPPCPAPELLGGPSVFLFPPKPKDTLMISRTPEVTCVVVAVSHEDPEVKFNWYVDGVEVHNAKTKPREEQYNSTYRVVSVLTVLHQDWLNGKEYKCKVSNKALAAPIEKTISKAKGQPREPQVYTLPPCRDELTKNQVSLWCLVKGFYPSDIAVEWESNGQPENNYKTTPPVLDSDGSFFLYSKLTVDKSRWQQGNVFSCSVMHEALHNHYTQKSLSLSPGK
B5: CD3 × CLL1_07 (bispecific antibody)
chain 1: B1 chain 1
chain 2: QVQLVESGGGLVQPGGSLRLSCAASGFTFSSYWMSWVRQAPGKGLEWVANINEDGSAKFYVDSVKGRFTISRDNAKNSLYLQMNSLRAEDTAVYFCARDLRSGRYWGQGTLVTVSSGGGGSGGGGSGGGGSEIVLTQSPGTLSLSPGGRATLSCRASQSISGSFLAWYQQKPGQAPRLLIYGASSRATGIPDRFSGSGSGTDFTLTISRLEPEDFAVYYCQQYGSSPPTFGLGTKLEIKGGGGSDKTHTCPPCPAPELLGGPSVFLFPPKPKDTLMISRTPEVTCVVVAVSHEDPEVKFNWYVDGVEVHNAKTKPREEQYNSTYRVVSVLTVLHQDWLNGKEYKCKVSNKALAAPIEKTISKAKGQPREPQVYTLPPCRDELTKNQVSLWCLVKGFYPSDIAVEWESNGQPENNYKTTPPVLDSDGSFFLYSKLTVDKSRWQQGNVFSCSVMHEALHNHYTQKSLSLSPGK
B6: CD3 × CLL1_02 (bispecific antibody)
chain 1: B1 chain 1
chain 2: EVQLVESGGGVVQPGGSLRLSCAASGFTFDDYAMHWVRQAPGKGLEWVSLISGDGGSTYYADSVKGRFTISRDNSKNTLYLQMNSLRVEDTAVYYCARVFDSYYMDVWGKGTTVTVSSGGGGSGGGGSGSGGSEIVLTQSPLSLPVTPGQPASISCRSSQSLVYTDGNTYLNWFQQRPGQSPRRLIYKVSNRDSGVPDRFSGSGSDTDFTLKISRVEAEDVGIYYCMQGTHWSFTFGQGTRLEIKGGGGSDKTHTCPPCPAPELLGGPSVFLFPPKPKDTLMISRTPEVTCVVVAVSHEDPEVKFNWYVDGVEVHNAKTKPREEQYNSTYRVVSVLTVLHQDWLNGKEYKCKVSNKALAAPIEKTISKAKGQPREPQVYTLPPCRDELTKNQVSLWCLVKGFYPSDIAVEWESNGQPENNYKTTPPVLDSDGSFFLYSKLTVDKSRWQQGNVFSCSVMHEALHNHYTQKSLSLSPGK
B7: CD3 × CLL1_12 (bispecific antibody)
chain 1: B1 chain 1
chain 2: not shown

biological target: T1, human CLL1 expressed on cancer cell …; test: cell-based or functional assay

First: B1
Second: B2
The “EC50 (nM), Killing HL60 (T-cell mediated killing of the CLL1-positive cancer cell line)” value (shortened to “EC50 (nM), Killing HL60”) of the first is 12-fold lower: 0.03 nM for the first, 0.36 nM for the second.

Going from B3 to B4, the “EC50 (nM), Killing HL60” value rises from 1.27 nM to 4.24 nM (3.3-fold).

Compared with B5, B6 is higher in “EC50 (nM), Killing HL60” value: 44.3 nM for the first, greater than 300 nM for the second.

With B7 the “EC50 (nM), Killing HL60” value was 0.2 nM.

In order of falling “EC50 (nM), NFAT U937 (T-cell activation, Jurkat NFAT luciferase reporter assay)” value:
1. B4  2.16 nM
2. B2  1.74 nM
3. B3  0.96 nM
4. B7  0.63 nM
5. B1  0.08 nM
